Assays:
purified protein [1] = substrate: N[C@@H](Cc1ccc(O)c(O)c1)C(=O)O; assay: purified protein; format: biochemical, Candidatus Nitrosopumilus koreensis; details: diphenolase
purified protein [2] = substrate: N[C@@H](Cc1ccc(O)cc1)C(=O)O; assay: purified protein; format: biochemical, Candidatus Nitrosopumilus koreensis; details: monophenolase
[3] = 50 mM Tris pH 6.0, 0.01 mM CuSO4, 20 °C, substrate range 0.025–0.0625 mM

Protein | Km (purified protein [1]; pH 6, 20 °C) | kcat (purified protein [1]; pH 6, 20 °C) | Km (purified protein [2]; pH 6, 20 °C) | kcat (purified protein [2]; pH 6, 20 °C) | Km (purified protein [1]; [3]) | kcat (purified protein [1]; [3]) | kcat/Km (purified protein [1]; [3]) | Km (purified protein [2]; [3]) | kcat (purified protein [2]; [3]) | kcat/Km (purified protein [2]; [3])
cTyr-CNK (Candidatus Nitrosopumilus koreensis AR1) (protein, core tyrosinase domain, residues 1-293, C-terminal 294-415 removed; His6 tag (pET23b+), E. coli BL21(DE3), Ni-NTA purified) MTRKNAKDFLPDERQRYCNALLTLKQTIEPGHTLSKYDEFVAIHYGVTRRLRNGIPIGDGAHFVPGFLAWHREYLNRFEKAIRTVDSTLSLPYWNWSSGDDTDTTEIFTDDFMGPPGDPNNGNKITSGYFVENNWEVHSELDGGNNGSVLVRDSTLLSSSKLSQVSGYGELAMDAVNGDNDFDSFLPGLEGPHGSIHMWIGGHMTSMTSPNDPIFFLHHANIDRLWSKWQELHPGPENYNPNNDGSYGSRLNDRMWPWDGSEDTTTTRTGTATGISLQGLLPTFSDYDIVTPR | 560 ± 40 µM | 2.05 ± 0.10 s⁻¹ | 1600 ± 650 µM | 2.13 ± 0.79 s⁻¹ | – | – | – | – | – | –
mTyr-CNK (Candidatus Nitrosopumilus koreensis AR1) (protein, mature form, residues 1-303, C-terminal extension 304-415 removed; His6 tag (pET23b+), codon-optimized gene, E. coli BL21(DE3), Ni-NTA purified) MTRKNAKDFLPDERQRYCNALLTLKQTIEPGHTLSKYDEFVAIHYGVTRRLRNGIPIGDGAHFVPGFLAWHREYLNRFEKAIRTVDSTLSLPYWNWSSGDDTDTTEIFTDDFMGPPGDPNNGNKITSGYFVENNWEVHSELDGGNNGSVLVRDSTLLSSSKLSQVSGYGELAMDAVNGDNDFDSFLPGLEGPHGSIHMWIGGHMTSMTSPNDPIFFLHHANIDRLWSKWQELHPGPENYNPNNDGSYGSRLNDRMWPWDGSEDTTTTRTGTATGISLQGLLPTFSDYDIVTPRHVLDNNLTIP | – | – | – | – | 490 ± 40 µM | 0.87 ± 0.07 s⁻¹ | 1810 ± 260 M⁻¹ s⁻¹ | 2120 ± 140 µM | 3.33 ± 0.18 s⁻¹ | 1570 ± 10 M⁻¹ s⁻¹

Source: publication PMC5722948, “A tyrosinase, mTyr-CNK, that is functionally available as a monophenol monooxygenase” (Scientific Reports, 2017)
